We go through one molecule from patent US11981714B2, “CCR5 and CD4 siRNA-targeted phospholipid nanosomes therapeutics for treatment of HIV-1 and other diseases” (priority 2020, dated 2024).

The experiment deals with HIV-1 RF, NIH Cat #2804. The experiment can be described thus: Infectivity assay by BFUs on MAGI P4/R5 cells with and without lipofectamine (RNA-I-61). It is filed as cell-based. To be noted: naked (unencapsulated), Presence of Lipofectamine. How it is done:
A knockdown study (RNA-I-61) of the 8 nanoencapsulated and the corresponding unencapsulated (naked) siRNA preparations along with two controls described in the previous experiments was performed using freshly reconstituted materials with HIV-1 RF, NIH Cat #2804, diluted to contain ˜100 Blue Focus forming Units (BFUs) per dose of inoculum. […] The objective of this experiment was to test a range of concentrations of the inhibitors to determine the ID50 for each preparation based on the siRNA content. Since the nanosomal materials were freshly reconstituted, they were recharacterized.
The reconstituted samples as well as the naked siRNA preparations were tested for virus infection inhibitory activity. The inhibition of infectivity was measured by counting the number of blue foci due to the induced β-galactosidase activity in the host MAGI P4/R5 cells by the infecting HIV. […] The number of BFUs for each treatment at various dilutions were used to calculate the % inhibition from the corresponding dilution for the Negative_siRNA samples. The inhibitor activity was also quantified by measuring the p24 antigen concentration in each of the wells.
Infectivity Assay by BFUs: The percent inhibitions obtained with various Nanosomal_siRNA formulations versus Negative_siRNA formulations in the presence of lipofectamine are listed in Table 12.
50% Inhibitory Dose (ID50) Values: The data from RNA quantification using gel analysis and the infectivity results were used to plot dose response curves and calculate the ID50 (a.k.a. Inhibitory Concentration that results in 50% inhibition, [IC50]) values.

B1: RANTES: CC chemokine, molecular weight 7,900, natural ligand of CCR5; unencapsulated in Table 13 (protein, UniProt P13501 24-91, looked up)
C-C motif chemokine 5: SPYSSDTTPCCFAYIARPLPRAHIKEYFYTSGKCSNPAVVFVTRKNRQVCANPEKKWVREYINSLEMS
In the case of B1, the “Inhibition of BFUs by Naked_siRNA vs Negative_siRNA” value (from here on “Inhibition … vs Negative_siRNA”) (Treatment Dilution 1) amounted to 0%; the “Inhibition … vs Negative_siRNA” value (Treatment Dilution 5) is on record as 34%; the “Inhibition … vs Negative_siRNA” value (Treatment Dilution 15) was found to be 18%; the “Inhibition … vs Negative_siRNA” value (Treatment Dilution 45) came out at 0%; the “Inhibition … vs Negative_siRNA” value (Treatment Dilution 135) was 0%.
